Test system: MS2 coat protein
Assay: apparent KD of MS2 coat protein; designed switch direction (-1 OFF switch, 1 ON switch): -1; higher = weaker reporter binding
In short: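 An oligonucleotide input, 200 uM small-molecule ligand, or no input was present during titration of SNAP-549-labelled MS2 coat protein, which was doubled from 0.7 or 1.5 nM to 3 µM. Designed RNA switches had been transcribed on Illumina chips by stalled E. coli RNA polymerase. Apparent KD per design is the median over clusters of curves fitted to normalised cluster fluorescence.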

[1] = input ligand: microRNA oligo, concentration not stated
[2] = Eterna round: R95, input ligand: microRNA oligo, concentration not stated
[3] = Eterna round: R95, input ligand: FMN 200 uM
[4] = Eterna round: R95, input ligand: none

Sequence	apparent KD of MS2 coat protein (input ligand: FMN 200 uM)	apparent KD of MS2 coat protein [1]	apparent KD of MS2 coat protein (input ligand: none)	apparent KD of MS2 coat protein [2]	apparent KD of MS2 coat protein [3]	apparent KD of MS2 coat protein [4]
CACCGUUACAGAGGAUAUGGCACAUGAGGAUCACCCAUGUAAUAAAUGAGAAUUUCGGAUGUAUUCCAGAAGGCUGUAACCGGC [Ostricism 68 - Jieux - Exclusion NG 2] (Eterna round: R96, puzzle: Exclusion NG 2)	41.2 nM	19 nM	35.6 nM	–	–	–
CACCGUUACAGAGGAUAUGUUACAUGAGGAUCACCCAUGUAAUAAAUGAGAAUUUCGAAUGUAAUACAGAAGGCUGGAAUCGGC [Ostracism 75 - Jieux - Exclusion NG 2] (Eterna round: R96, puzzle: Exclusion NG 2)	38.3 nM	15.8 nM	21.3 nM	–	–	–
CAGAAACAUGAGGAUCACCCAUGUGAGGAUAUGCGUACGUUGUCCGUAGGCGACGUGCGCAGAAGGCACAAAGG [Mat - Mod of JL D84] (puzzle: Exclusion 1)	–	–	–	111 nM	–	–
CAGACCCGCCUUGGUCACAUGAGGAUCACCCAUGUUUAGGUCUAGGAUAUGGCCGUCGAGGACGGCCAGAAGGAGAAUAUCAUG [Eternabot solution 34] (Eterna round: R96, puzzle: Exclusion NG 3)	102 nM	32.1 nM	43 nM	–	–	–
CAGCUGAAUGUCAGGAUAUCUAGAGCCUCGGCUCUAGAGAAGGGACAUGAGGAUCACCCAUGUCACUCCAGCUG [BmEx4/3-B2] (Eterna round: R97, puzzle: Brourd's mod of Exclusion 4)	22.4 nM	–	17.8 nM	–	–	–
CAGCUGAAUGUGAGGAUAUGUCGAGCGAUAGCUCGAUAGAAGGCACAUGAGGAUCACCCAUGUCUCAACAGCUG [BmEx4/2-C4] (Eterna round: R97, puzzle: Brourd's mod of Exclusion 4)	349 nM	–	28.3 nM	–	–	–
CAGCUGAAUGUGAGGAUAUGUCUAGCUGCGGCUAGACAGAAGGCACAUGAGGAUCACCCAUGUCUCAACAGCUG [BmEx4/2-D3] (Eterna round: R97, puzzle: Brourd's mod of Exclusion 4)	414 nM	–	35.5 nM	–	–	–
CAGCUGUCAGGAUAUCGUGCAUACAACGAAAGUUCUAUGUGCGAGAAGGGACAUGAGGAUCACCCAUGUAAACG [Omei Ex4 A26] (Eterna round: R97, puzzle: Exclusion 4)	101 nM	–	57.4 nM	–	–	–
CAGCUGUCAGGAUAUCGUGCAUACAACGAAAGUUCUAUGUGCGAGAAGGGACAUGAGGAUCACCCAUGUUUCCG [Omei Ex4 A23] (Eterna round: R97, puzzle: Exclusion 4)	21.1 nM	–	16.1 nM	–	–	–
CAGUACUGAGGAUAUACAUGAGGAUCACCCAUGUAAUAAGGUUAGGAAACUAACCUAUGUAGAAGGCAGUACUG [Eli x3 4.07] (Eterna round: R97, puzzle: Exclusion 3)	13.2 nM	–	14.7 nM	–	–	–
CAGUACUGAGGAUAUACAUGAGGAUCACCCAUGUGAUCUAGUGCACGCGUACGUGUACGUAGAAGGCAGUACUG [JL 3.27 m3] (Eterna round: R97, puzzle: Exclusion 3)	562 nM	–	46.8 nM	–	–	–
CAGUACUGAGGAUAUACAUGAGGAUCACCCAUGUGAUUUGGUGCACGCGUACGUGUACGUAGAAGGCAGUACUG [JL 3.27 m5] (Eterna round: R97, puzzle: Exclusion 3)	363 nM	–	24.2 nM	–	–	–
CAGUACUGAGGAUAUACAUGAGGAUCACCCAUGUGUUCCAGCUAGGAAUCUAGCAAAAGUAGAAGGCAGUACUG [salish99_ex3_r3_094x] (Eterna round: R96, puzzle: Exclusion 3)	727 nM	22.4 nM	25.1 nM	–	–	–
CAGUACUGAGGAUAUACAUGAGGAUCACCCAUGUGUUCCAGCUAGGAAUCUAGCAAAAGUAGAAGGCAGUACUG [salish99_ex3_r3_094x] (puzzle: Exclusion 3)	–	–	–	25.3 nM	–	–
CAGUACUGAGGAUAUACAUGAGGAUCACCCAUGUGUUCCAGCUAGGUAACUAGCAAAAGUAGAAGGCAGUACUG [salish99_ex3_r3_096x] (puzzle: Exclusion 3)	–	–	–	25.7 nM	–	–
CAGUACUGAGGAUAUACAUGAGGAUCACCCAUGUGUUCCUGCUAGGAAACUAGCAAAAGUAGAAGGCAGUACUG [salish99_ex3_r3_098x] (Eterna round: R96, puzzle: Exclusion 3)	516 nM	26.1 nM	27.5 nM	–	–	–
CAGUACUGAGGAUAUACAUGAGGAUCACCCAUGUGUUCCUGCUAGGAAACUAGCAAAAGUAGAAGGCAGUACUG [salish99_ex3_r3_098x] (puzzle: Exclusion 3)	–	–	–	28.5 nM	–	–
CAGUACUGAGGAUAUACAUGAGGAUCACCCAUGUGUUCCUGCUAGGAAACUAGCAAGGGUAGAAGGCAGUACUG [Salish 065 m4] (Eterna round: R97, puzzle: Exclusion 3)	132 nM	–	16.4 nM	–	–	–
CAGUCCGUUUGAGGAUAUCUCUGGAUCGCCAUGAGAGAAGGCAAACAUGAGGAUCACCCAUGUGGUACCGACUCAACGUCGACA [Eternabot solution 10] (Eterna round: R96, puzzle: Exclusion NG 1)	20.7 nM	11.6 nM	16 nM	–	–	–
CAUCCACAUGAGGAUCACCCAUGUGAGGAUAUGAUACUAUGUACUUCGGUACAUAGUAUCAGAAGGCACAGGUG [Ex1-3: 59] (puzzle: Exclusion 1)	–	–	–	111 nM	–	–
CAUCCUAUUGUAGGAUAUCCGCUUAUUAUAUUGGGAGAAGGACAUGAGGAUCACCCAUGUGUGUAAUCAGAUGUGCGUGUUAAC [an other try] (Eterna round: R96, puzzle: Exclusion NG 1)	173 nM	66.1 nM	82.2 nM	–	–	–
CAUGAUCUUCGGAUCAUGGACAUGAGGAUCACCCAUGUCACGAGCAGAUCCUCAUGCAAGCUUUUUGCUCGUCUUAU [Sensor v3 - Turn-off variant 1 - 35] (puzzle: Sensor v3, turn-off variant 1)	–	–	–	8.73 nM	62.9 nM	85.2 nM
CAUGAUCUUCGGAUCAUGUACAUGAGGAUCACCCAUGUGACGAGUAGAUCCUCAAACAAGCUUUUUGCUCGUCUUAU [Sensor v3 - Turn-off variant 1 - 19] (puzzle: Sensor v3, turn-off variant 1)	–	–	–	12.1 nM	50.7 nM	64.5 nM
CAUGAUUGGCGAGGAUAUUGUUCUACAUGGCGACGAGAAGGCGCCUGUCACAUGAGGAUCACCCAUGUGAGUCUGGUGAAUGAG [Ex NG1 #84] (Eterna round: R96, puzzle: Exclusion NG 1)	27 nM	16.6 nM	22.2 nM	–	–	–
CAUGAUUGGGAAGGAUAUUGACCUAGUUAGCGACGAGAAGGUCCCUGUCACAUGAGGAUCACCCAUGUGAAUCUGGUGAAAGAG [Ex NG1 #100] (Eterna round: R96, puzzle: Exclusion NG 1)	29.8 nM	20.4 nM	24.2 nM	–	–	–
CAUGCACAUGAGGAUCACCCAUGUGAGGAUAUUUAGCGUCAGUAAUCAAUAGACAGCAGAAGAAGGCACCUGGU [Eternabot (L2) Solution 73] (Eterna round: R97, puzzle: Exclusion 1)	35 nM	–	29.4 nM	–	–	–
CAUGCUUCGGCAUGUACAAGCUUUUUGCUCGUCUUAUUAACAUGAGGAUCACCCAUGUACAAGAGACCUCAUGUAUU [Sensor v3 - turn-off variant 2 - 11] (puzzle: Sensor v3, turn-off variant 2)	–	–	–	22.9 nM	293 nM	338 nM
CAUUAUGUUGAGGAUAUGCGCCGGAAAACUGACGCAGAAGGCGACACAUGAGGAUCACCCAUGUCAGUUCGCGA [salish99_ex6_r004_424] (Eterna round: R97, puzzle: Exclusion 6)	10.6 nM	–	10.6 nM	–	–	–
CAUUAUUAUCGAGGAUAUCCUAUUGUAAUUCUGGGAGAAGGCGGACUCAACAUGAGGAUCACCCAUGUAAGACGGGUGCUAGAG [Ex NG1 #24] (Eterna round: R96, puzzle: Exclusion NG 1)	306 nM	236 nM	276 nM	–	–	–
CAUUUGUAAGGAUAUGCACCGAUCUCCGAAAGGAGAUCGGUGCAGAAGGUACAUGAGGAUCACCCAUGUUGAUG [Mod of Brourd 11 - Jieux - Exclusion 4] (Eterna round: R97, puzzle: Exclusion 4)	218 nM	–	33.6 nM	–	–	–

Source: the supplement of paper PMC9170038
